Test results published in patent US20250074980A1 (BRIGHAM AND WOMEN S HOSPITAL, published 2025).
Positions count from the first letter of the chain named. Names may count otherwise. Each block holds one binder with its values, some of them ahead of it.

What was measured:
His-tagged CEACAM1 [1] = target: T1, His-tagged CEACAM1 (human, UniProt P13688 35-428); test: SPR single-cycle, IgG captured
T1 construct: 45 kDa SPR analyte; also called CEACAM1-HIS; CEACAM1 analyte
T1 sequence: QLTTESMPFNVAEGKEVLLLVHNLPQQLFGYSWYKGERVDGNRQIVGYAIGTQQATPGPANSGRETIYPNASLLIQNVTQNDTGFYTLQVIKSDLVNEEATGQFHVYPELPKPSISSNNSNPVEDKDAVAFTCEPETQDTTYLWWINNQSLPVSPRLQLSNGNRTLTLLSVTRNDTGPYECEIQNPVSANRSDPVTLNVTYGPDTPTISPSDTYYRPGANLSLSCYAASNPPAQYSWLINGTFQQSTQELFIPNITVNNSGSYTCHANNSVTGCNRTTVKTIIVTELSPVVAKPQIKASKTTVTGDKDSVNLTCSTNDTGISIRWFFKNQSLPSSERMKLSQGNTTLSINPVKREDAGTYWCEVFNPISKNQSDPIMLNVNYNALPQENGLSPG
Method: (§1) As an alternative approach to assess the binding of the 36 antibody combinations and the three control antibodies to CEACAM1, a kinetic analysis was performed on a Biacore T200 (serial no. 1909913) running Biacore T200 Evaluation Software V2.0.1 (Uppsala, Sweden). All experiments were run at 25° C. with HBS-P+ running buffer (pH 7.4) (GE Healthcare, cat. no. BR100671). All kinetic experiments were performed using His-tagged CEACAM1 as the analyte. For all experiments, antibodies were immobilized onto a Series S Protein A sensor chip surface. For kinetic experiments, the amount of immobilized/captured ligand was limited to avoid mass transfer effects at the surface of the chip with the surface ideally having an analyte binding level (Rₘₐₓ) of 50-150 RUs. Using a MW of 45 kDa for the CEACAM1 analyte, 150 kDa for the antibody ligand (estimated value for IgG), 50 RU for Rmax and the stoichiometry (Sm) as 2 due to the ability of each antibody to bind 2 target molecules, a target response level of ˜75 RUs was set for capture of all the sample antibodies.
Single cycle analysis of the 36 antibody combinations and the three control antibodies was performed on purified antibodies (Vκ1 to Vκ6 variants) or on the supernatants of the transiently transfected HEK EBNA cells (Vκ7 to Vκ12 variants). In some instances, where supernatant was not available, purified chimeric antibody VH0/Vκ0 was spiked into HEK EBNA culture medium to use as a positive control. Antibodies were diluted in HBS-P+ to a concentration of 1 μg/ml (as determined by an IgG quantitation ELISA). At the start of each cycle, antibodies were loaded onto Fc2, Fc3 and Fc4 of a protein A chip and IgG captured at a flow rate of 8 μl/min to give an RU of ˜75. The surface was then allowed to stabilize. Single cycle kinetic data was obtained at a flow rate of 50 μl/min to minimize any potential mass transfer effects. Multiple repeats of the chimeric antibody VH0/Vκ0 were performed to check the stability of the surface and analyte over the kinetic cycles. The signal from the reference channel Fc1 (no antibody) was subtracted from that of Fc2, Fc3 and Fc4 to correct for differences in non-specific binding to a reference surface. A 5 point 2-fold dilution range from 3.125 to 50 nM CEACAM1 without regeneration between each concentration was used.

[2] = target: T2, CEACAM6 on transfected HeLa cells (human, UniProt P40199 35-320); test: flow cytometry, HeLa-CEACAM6 transfectants, % positive cells
T2 construct: whole, on cells; also called HeLa-CEACAM6; HeLa C6
T2 sequence (looked up): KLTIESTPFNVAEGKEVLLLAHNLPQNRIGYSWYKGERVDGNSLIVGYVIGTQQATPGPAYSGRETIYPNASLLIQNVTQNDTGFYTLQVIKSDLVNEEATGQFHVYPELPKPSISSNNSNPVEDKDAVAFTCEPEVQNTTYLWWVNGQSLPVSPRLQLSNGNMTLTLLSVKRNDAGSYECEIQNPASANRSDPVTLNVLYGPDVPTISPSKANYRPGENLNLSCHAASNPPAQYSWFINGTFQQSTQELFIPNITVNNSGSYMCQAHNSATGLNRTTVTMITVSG
Method: Binding selectivity for CEACAM1 was tested for the 24 humanized antibody variants that bound to CEACAM1 (see Table 3), as well as the chimeric control antibody VH0/Vκ0, by flow cytometry on HeLa cells transfected with CEACAM1, 3, 5, 6 and 8. […] There was no evidence of any staining of the HeLa-CEACAM3 or HeLa-CEACAM8 transfectants. […] Due to its favorable affinity to and selectivity for CEACAM1 as well as its favorable expression level, VH1/Vκ8 was chosen as the framework for affinity maturation.

[3] = target: T3, CEACAM8 on transfected HeLa cells (human, UniProt P31997 35-320); test: flow cytometry, transfected HeLa
T3 construct: whole, on cells; also called HeLa-CEACAM8; HeLa C8
T3 sequence (looked up): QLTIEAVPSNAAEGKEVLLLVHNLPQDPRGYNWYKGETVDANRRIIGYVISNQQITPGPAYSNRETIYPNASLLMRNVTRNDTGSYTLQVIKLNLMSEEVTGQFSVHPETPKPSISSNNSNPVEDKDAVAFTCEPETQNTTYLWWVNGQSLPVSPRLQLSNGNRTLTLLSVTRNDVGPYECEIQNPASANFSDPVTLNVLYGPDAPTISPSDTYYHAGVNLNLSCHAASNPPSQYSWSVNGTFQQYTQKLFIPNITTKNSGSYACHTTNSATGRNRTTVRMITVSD
Outline: (§2)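 HeLa cells stably transfected with single CEACAM family members were grown in DMEM with 10% fetal bovine serum at 37° C and 5.0% CO₂. After staining with the test antibody and then a fluorochrome-conjugated isotype-specific secondary antibody, with DAPI as the viability dye, the cells were run on a Cytoflex and the data analysed in FlowJo. Binding selectivity is reported as the staining of each transfectant.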

[4] = target: T4, CEACAM3 on transfected HeLa cells (human, UniProt P40198 35-252); test: flow cytometry, transfected HeLa
T4 construct: whole, on cells; also called HeLa-CEACAM3; HeLa C3
T4 sequence (looked up): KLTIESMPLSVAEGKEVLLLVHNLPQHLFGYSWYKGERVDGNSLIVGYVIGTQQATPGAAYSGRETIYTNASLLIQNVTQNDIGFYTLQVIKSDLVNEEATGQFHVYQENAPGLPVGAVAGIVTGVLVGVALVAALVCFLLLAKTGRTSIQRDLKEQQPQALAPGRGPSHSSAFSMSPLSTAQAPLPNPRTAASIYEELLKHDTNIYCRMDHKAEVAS
Outline: as §2

His-tagged CEACAM1 [5] = target: T1, His-tagged CEACAM1; test: SPR multi-cycle, IgG captured
Method: as §1
The signal from the reference channel Fc1 was subtracted from that of Fc2, Fc3 and Fc4 to correct for differences in non-specific binding to a reference surface, a global Rmax parameter was used in the 1-to-1 binding model. The relative Kp compared to […] was calculated by dividing the Kp of the humanized CEACAM antibody variants by that of the chimeric antibody VH0/Vκ0 on the same chip. A summary of the averaged relative Kp obtained for the 12 antibody combinations analyzed using multi cycle kinetics can be found in Table 5.

B1: VH1/Vκ2 (antibody, IgG4, V domains shown)
VH: EVQLLESGGGLVQPGGSLRLSCAASGFIFSSHGMSWVRQAPGKGLEWVATISSGGTYTYYPDSVKGRFTISRDNSKNTLYLQMNSLKAEDTAMYYCARHDFDYDAAWFAYWGQGTLVTVSS
VL: EIVLTQSPATLSLSPGERATLSCRANSSVSYMYWYQQKPGQAPRPWIYLTSNRATGVPARFSGSGSGTDYTLTISSLEPEDFATYYCQQWSSNPPTFGQGTKLEIK
notes: IgG4 (S241P), kappa
Kd (His-tagged CEACAM1 [1]): 134 nM | relative KD to VH0/Vκ0 (His-tagged CEACAM1 [1]): 3.2 | binding result [2]: no binding | binding result [3]: no binding | binding result [4]: no binding | Kd (His-tagged CEACAM1 [5]): 190 nM | average relative KD to VH0/Vκ0 (His-tagged CEACAM1 [5]): 3.4 | koff (His-tagged CEACAM1 [5]): 0.0503 s⁻¹ | kon (His-tagged CEACAM1 [5]): 265000 M⁻¹ s⁻¹ | relative KD to VH0/Vκ0 (His-tagged CEACAM1 [5]): 3.4

B3: VH2/Vκ2 (antibody, IgG4, V domains shown)
VH: B1 VH with K87R
VL: B1 VL
notes: IgG4 (S241P), kappa
Kd (His-tagged CEACAM1 [1]): 98 nM | relative KD to VH0/Vκ0 (His-tagged CEACAM1 [1]): 2.3 | binding result [2]: no binding | binding result [3]: no binding | binding result [4]: no binding

Results, then the binder that gave them:

Kd (His-tagged CEACAM1 [1]): 135 nM | relative KD to VH0/Vκ0 (His-tagged CEACAM1 [1]): 3.2 | binding result [2]: no binding | binding result [3]: no binding | binding result [4]: no binding
B2: VH3/Vκ1 (antibody, IgG4, V domains shown)
VH: B1 VH with P61A, K87R
VL: B1 VL with E1Q, T10L, L21M, R24S, Q36R, R44K, R53L, T55S, P79A
notes: IgG4 (S241P), kappa

Kd (His-tagged CEACAM1 [1]): 99 nM | relative KD to VH0/Vκ0 (His-tagged CEACAM1 [1]): 2.4 | binding result [2]: no binding | binding result [3]: no binding | binding result [4]: no binding
B4: VH4/Vκ1 (antibody, IgG4, V domains shown)
VH: B1 VH with A49S, P61A, K87R, M93V
VL: B1 VL with E1Q, T10L, L21M, R24S, Q36R, R44K, R53L, T55S, P79A
notes: IgG4 (S241P), kappa

Kd (His-tagged CEACAM1 [1]): 142 nM | relative KD to VH0/Vκ0 (His-tagged CEACAM1 [1]): 3.4 | binding result [2]: no binding | binding result [3]: no binding | binding result [4]: no binding | Kd (His-tagged CEACAM1 [5]): 220 nM | average relative KD to VH0/Vκ0 (His-tagged CEACAM1 [5]): 4 | koff (His-tagged CEACAM1 [5]): 0.0504 s⁻¹ | kon (His-tagged CEACAM1 [5]): 229000 M⁻¹ s⁻¹ | relative KD to VH0/Vκ0 (His-tagged CEACAM1 [5]): 4
B5: VH1/Vκ9 (antibody, IgG4, V domains shown)
VH: B1 VH
VL: B1 VL with W46L
notes: IgG4 (S241P), kappa
